Patent US20260217860A1

Assays:
[1] = molecular target: human EGFR on CHO-S-hEGFR cells (human) (UniProt P00533); assay: flow cytometry, transfected CHO-S cells, secondary antibody only
[2] = molecular target: human MUC1 (484 amino acids) on CHO-S-hMUC1 (484AA) cells (human) (UniProt P15941); assay: as above
[3] = molecular target: monkey (Macaca fascicularis) MUC1 on CHO-S-fasMUC1 cells (monkey (Macaca fascicularis)); assay: as above
[4] = molecular target: monkey EGFR on CHO-S-fasEGFR cells (monkey) (UniProt P55245); assay: as above
[5] = molecular target: human EGFR on CHO-S-hEGFR cells (human) (UniProt P00533); assay: flow cytometry, transfected CHO-S cells
[6] = molecular target: human MUC1 (484 amino acids) on CHO-S-hMUC1 (484AA) cells (human) (UniProt P15941); assay: flow cytometry, transfected CHO-S cells
[7] = molecular target: monkey (Macaca fascicularis) MUC1 on CHO-S-fasMUC1 cells (monkey (Macaca fascicularis)); assay: flow cytometry, transfected CHO-S cells
[8] = molecular target: monkey EGFR on CHO-S-fasEGFR cells (monkey) (UniProt P55245); assay: flow cytometry, transfected CHO-S cells

Sequence of monkey (Macaca fascicularis) MUC1 on CHO-S-fasMUC1 cells (monkey (Macaca fascicularis)) (chain, as listed by the source): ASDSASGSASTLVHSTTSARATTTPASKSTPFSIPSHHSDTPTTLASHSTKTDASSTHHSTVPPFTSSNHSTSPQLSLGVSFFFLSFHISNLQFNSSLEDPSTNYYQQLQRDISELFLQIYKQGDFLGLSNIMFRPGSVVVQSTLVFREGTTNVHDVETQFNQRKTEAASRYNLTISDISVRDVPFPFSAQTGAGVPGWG

Row | Substance | Percentage of Positive Cells (%) [1] [%] | Percentage of Positive Cells (%) [2] [%] | Percentage of Positive Cells (%) [3] [%] | Percentage of Positive Cells (%) [4] [%] | Percentage of Positive Cells (%) [5] [%] | Percentage of Positive Cells (%) [6] [%] | Percentage of Positive Cells (%) [7] [%] | Percentage of Positive Cells (%) [8] [%]
1 | secondary antibody anti-hIgG-Fc-Alex Flour 647 (RLI-H) (Jackson ImmunoResearch Laboratories, Inc., Cat #: 109-606-170) | 0.66 | 2 | 0.91 | 0.19 | – | – | – | –
2 | isotype control (ISO), an antibody targeting an irrelevant target protein | – | – | – | – | 0.7 | 4.05 | 1.15 | 0.58
